Paper PMC11153131

Biological target: recombinant LDLR protein, extracellular domain, immobilised on the QCM chip (human) (UniProt P01130)
Assay: quartz crystal microbalance (QCM)

Row | Substance | Kd [nM] | koff [s⁻¹] | kon [M⁻¹ s⁻¹]
1 | Human Fc-tagged CCHFV Gc (Fc fusion) | 3.3 | 5.9e-05 | 13000
2 | GP38, a secreted CCHFV glycoprotein (from UniProt Q8JSZ3 248-519) (natural protein) | 180 | – | –
3 | unlabelled LDL from human plasma (complex) | 3 | 0.00112 | 255000
